# *1 amine or outer side, *2 acyl side, *3 side chain or, on linkers, in order; H or OH if unused. Side-chain parts run from the residue outwards. The star is where a group is joined. C18 diacid = O=C(O)CCCCCCCCCCCCCCCCC(=O)*; γGlu = O=C(O)[C@H](CCC(=O)[*:2])N[*:1]; Isovaleryl = CC(C)CC(=O)*; Ahx = NCCCCCC(=O)O
# T1: human NPY2 receptor (human, UniProt P49146 1-381)
# T1 construct: whole, on cells; also called hNPY2-R; hNPY2R
# T1 sequence (looked up): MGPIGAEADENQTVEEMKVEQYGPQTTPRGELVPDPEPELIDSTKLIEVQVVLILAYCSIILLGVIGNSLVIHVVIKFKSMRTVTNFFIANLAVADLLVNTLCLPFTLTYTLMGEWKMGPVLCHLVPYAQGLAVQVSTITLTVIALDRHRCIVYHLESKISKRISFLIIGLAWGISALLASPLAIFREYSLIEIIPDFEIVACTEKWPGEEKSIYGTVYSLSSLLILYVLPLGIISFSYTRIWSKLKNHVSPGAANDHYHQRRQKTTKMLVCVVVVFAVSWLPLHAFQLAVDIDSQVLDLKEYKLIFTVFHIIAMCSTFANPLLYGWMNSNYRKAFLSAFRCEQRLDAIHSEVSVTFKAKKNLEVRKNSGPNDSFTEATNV
# Molecular target: T1, human NPY2 receptor
# Test: RLB: displacement of 125I-PYY(1-36) from hNPY2R membranes
row,Ki,Binder
1,1.68 nM,"Isovaleryl-APEK([Ahx-γGlu-C18 diacid])PEEDSSPEELQRYYVALRHYYNWLTRQRY-NH2 (SMILES CC(C)CC(=O)N[C@@H](C)C(=O)N1CCC[C@H]1C(=O)N[C@@H](CCC(=O)O)C(=O)N[C@@H](CCCCNC(=O)CCCCCNC(=O)CC[C@H](NC(=O)CCCCCCCCCCCCCCCCC(=O)O)C(=O)O)C(=O)N1CCC[C@H]1C(=O)N[C@@H](CCC(=O)O)C(=O)N[C@@H](CCC(=O)O)C(=O)N[C@@H](CC(=O)O)C(=O)N[C@@H](CO)C(=O)N[C@@H](CO)C(=O)N1CCC[C@H]1C(=O)N[C@@H](CCC(=O)O)C(=O)N[C@@H](CCC(=O)O)C(=O)N[C@@H](CC(C)C)C(=O)N[C@@H](CCC(N)=O)C(=O)N[C@@H](CCCNC(=N)N)C(=O)N[C@@H](Cc1ccc(O)cc1)C(=O)N[C@@H](Cc1ccc(O)cc1)C(=O)N[C@H](C(=O)N[C@@H](C)C(=O)N[C@@H](CC(C)C)C(=O)N[C@@H](CCCNC(=N)N)C(=O)N[C@@H](Cc1c[nH]cn1)C(=O)N[C@@H](Cc1ccc(O)cc1)C(=O)N[C@@H](Cc1ccc(O)cc1)C(=O)N[C@@H](CC(N)=O)C(=O)N[C@@H](Cc1c[nH]c2ccccc12)C(=O)N[C@@H](CC(C)C)C(=O)N[C@H](C(=O)N[C@@H](CCCNC(=N)N)C(=O)N[C@@H](CCC(N)=O)C(=O)N[C@@H](CCCNC(=N)N)C(=O)N[C@@H](Cc1ccc(O)cc1)C(N)=O)[C@@H](C)O)C(C)C, printed structure identical to Compound 24) [Compound 151]"
2,4.2 nM,Isovaleryl-APEK([Ahx-γGlu-C18 diacid])PEEAAEPEEIQRYYVALRHYYNWLTRQRY-NH2 (SMILES CC[C@H](C)[C@H](NC(=O)[C@H](CCC(=O)O)NC(=O)[C@H](CCC(=O)O)NC(=O)[C@@H]1CCCN1C(=O)[C@H](CCC(=O)O)NC(=O)[C@H](C)NC(=O)[C@H](C)NC(=O)[C@H](CCC(=O)O)NC(=O)[C@H](CCC(=O)O)NC(=O)[C@@H]1CCCN1C(=O)[C@H](CCCCNC(=O)CCCCCNC(=O)CC[C@H](NC(=O)CCCCCCCCCCCCCCCCC(=O)O)C(=O)O)NC(=O)[C@H](CCC(=O)O)NC(=O)[C@@H]1CCCN1C(=O)[C@H](C)NC(=O)CC(C)C)C(=O)N[C@@H](CCC(N)=O)C(=O)N[C@@H](CCCNC(=N)N)C(=O)N[C@@H](Cc1ccc(O)cc1)C(=O)N[C@@H](Cc1ccc(O)cc1)C(=O)N[C@H](C(=O)N[C@@H](C)C(=O)N[C@@H](CC(C)C)C(=O)N[C@@H](CCCNC(=N)N)C(=O)N[C@@H](Cc1c[nH]cn1)C(=O)N[C@@H](Cc1ccc(O)cc1)C(=O)N[C@@H](Cc1ccc(O)cc1)C(=O)N[C@@H](CC(N)=O)C(=O)N[C@@H](Cc1c[nH]c2ccccc12)C(=O)N[C@@H](CC(C)C)C(=O)N[C@H](C(=O)N[C@@H](CCCNC(=N)N)C(=O)N[C@@H](CCC(N)=O)C(=O)N[C@@H](CCCNC(=N)N)C(=O)N[C@@H](Cc1ccc(O)cc1)C(N)=O)[C@@H](C)O)C(C)C) [Compound 156]
3,6.8 nM,Isovaleryl-APEK([Ahx-γGlu-C18 diacid])PEELATPEELQRYYVSLRHYYNWLTRQRY-NH2 (SMILES CC(C)CC(=O)N[C@@H](C)C(=O)N1CCC[C@H]1C(=O)N[C@@H](CCC(=O)O)C(=O)N[C@@H](CCCCNC(=O)CCCCCNC(=O)CC[C@H](NC(=O)CCCCCCCCCCCCCCCCC(=O)O)C(=O)O)C(=O)N1CCC[C@H]1C(=O)N[C@@H](CCC(=O)O)C(=O)N[C@@H](CCC(=O)O)C(=O)N[C@@H](CC(C)C)C(=O)N[C@@H](C)C(=O)N[C@H](C(=O)N1CCC[C@H]1C(=O)N[C@@H](CCC(=O)O)C(=O)N[C@@H](CCC(=O)O)C(=O)N[C@@H](CC(C)C)C(=O)N[C@@H](CCC(N)=O)C(=O)N[C@@H](CCCNC(=N)N)C(=O)N[C@@H](Cc1ccc(O)cc1)C(=O)N[C@@H](Cc1ccc(O)cc1)C(=O)N[C@H](C(=O)N[C@@H](CO)C(=O)N[C@@H](CC(C)C)C(=O)N[C@@H](CCCNC(=N)N)C(=O)N[C@@H](Cc1c[nH]cn1)C(=O)N[C@@H](Cc1ccc(O)cc1)C(=O)N[C@@H](Cc1ccc(O)cc1)C(=O)N[C@@H](CC(N)=O)C(=O)N[C@@H](Cc1c[nH]c2ccccc12)C(=O)N[C@@H](CC(C)C)C(=O)N[C@H](C(=O)N[C@@H](CCCNC(=N)N)C(=O)N[C@@H](CCC(N)=O)C(=O)N[C@@H](CCCNC(=N)N)C(=O)N[C@@H](Cc1ccc(O)cc1)C(N)=O)[C@@H](C)O)C(C)C)[C@@H](C)O) [Compound 153]
4,3.71 nM,Isovaleryl-APEK([Ahx-γGlu-C18 diacid])PEEAATPEEIQRYYVALRHYYNWLTRQRY-NH2 (SMILES CC[C@H](C)[C@H](NC(=O)[C@H](CCC(=O)O)NC(=O)[C@H](CCC(=O)O)NC(=O)[C@@H]1CCCN1C(=O)[C@@H](NC(=O)[C@H](C)NC(=O)[C@H](C)NC(=O)[C@H](CCC(=O)O)NC(=O)[C@H](CCC(=O)O)NC(=O)[C@@H]1CCCN1C(=O)[C@H](CCCCNC(=O)CCCCCNC(=O)CC[C@H](NC(=O)CCCCCCCCCCCCCCCCC(=O)O)C(=O)O)NC(=O)[C@H](CCC(=O)O)NC(=O)[C@@H]1CCCN1C(=O)[C@H](C)NC(=O)CC(C)C)[C@@H](C)O)C(=O)N[C@@H](CCC(N)=O)C(=O)N[C@@H](CCCNC(=N)N)C(=O)N[C@@H](Cc1ccc(O)cc1)C(=O)N[C@@H](Cc1ccc(O)cc1)C(=O)N[C@H](C(=O)N[C@@H](C)C(=O)N[C@@H](CC(C)C)C(=O)N[C@@H](CCCNC(=N)N)C(=O)N[C@@H](Cc1c[nH]cn1)C(=O)N[C@@H](Cc1ccc(O)cc1)C(=O)N[C@@H](Cc1ccc(O)cc1)C(=O)N[C@@H](CC(N)=O)C(=O)N[C@@H](Cc1c[nH]c2ccccc12)C(=O)N[C@@H](CC(C)C)C(=O)N[C@H](C(=O)N[C@@H](CCCNC(=N)N)C(=O)N[C@@H](CCC(N)=O)C(=O)N[C@@H](CCCNC(=N)N)C(=O)N[C@@H](Cc1ccc(O)cc1)C(N)=O)[C@@H](C)O)C(C)C) [Compound 154]
5,1.32 nM,Isovaleryl-APEK([Ahx-γGlu-C18 diacid])PEEDATPEETQRYYVSLRHYYNWLTRQRY-NH2 (SMILES CC(C)CC(=O)N[C@@H](C)C(=O)N1CCC[C@H]1C(=O)N[C@@H](CCC(=O)O)C(=O)N[C@@H](CCCCNC(=O)CCCCCNC(=O)CC[C@H](NC(=O)CCCCCCCCCCCCCCCCC(=O)O)C(=O)O)C(=O)N1CCC[C@H]1C(=O)N[C@@H](CCC(=O)O)C(=O)N[C@@H](CCC(=O)O)C(=O)N[C@@H](CC(=O)O)C(=O)N[C@@H](C)C(=O)N[C@H](C(=O)N1CCC[C@H]1C(=O)N[C@@H](CCC(=O)O)C(=O)N[C@@H](CCC(=O)O)C(=O)N[C@H](C(=O)N[C@@H](CCC(N)=O)C(=O)N[C@@H](CCCNC(=N)N)C(=O)N[C@@H](Cc1ccc(O)cc1)C(=O)N[C@@H](Cc1ccc(O)cc1)C(=O)N[C@H](C(=O)N[C@@H](CO)C(=O)N[C@@H](CC(C)C)C(=O)N[C@@H](CCCNC(=N)N)C(=O)N[C@@H](Cc1c[nH]cn1)C(=O)N[C@@H](Cc1ccc(O)cc1)C(=O)N[C@@H](Cc1ccc(O)cc1)C(=O)N[C@@H](CC(N)=O)C(=O)N[C@@H](Cc1c[nH]c2ccccc12)C(=O)N[C@@H](CC(C)C)C(=O)N[C@H](C(=O)N[C@@H](CCCNC(=N)N)C(=O)N[C@@H](CCC(N)=O)C(=O)N[C@@H](CCCNC(=N)N)C(=O)N[C@@H](Cc1ccc(O)cc1)C(N)=O)[C@@H](C)O)C(C)C)[C@@H](C)O)[C@@H](C)O) [Compound 152]
6,7.6 nM,Isovaleryl-APEK([Ahx-γGlu-C18 diacid])PEEDATPEELQRYYVSLRHYYNWLSRQRY-NH2 (SMILES CC(C)CC(=O)N[C@@H](C)C(=O)N1CCC[C@H]1C(=O)N[C@@H](CCC(=O)O)C(=O)N[C@@H](CCCCNC(=O)CCCCCNC(=O)CC[C@H](NC(=O)CCCCCCCCCCCCCCCCC(=O)O)C(=O)O)C(=O)N1CCC[C@H]1C(=O)N[C@@H](CCC(=O)O)C(=O)N[C@@H](CCC(=O)O)C(=O)N[C@@H](CC(=O)O)C(=O)N[C@@H](C)C(=O)N[C@H](C(=O)N1CCC[C@H]1C(=O)N[C@@H](CCC(=O)O)C(=O)N[C@@H](CCC(=O)O)C(=O)N[C@@H](CC(C)C)C(=O)N[C@@H](CCC(N)=O)C(=O)N[C@@H](CCCNC(=N)N)C(=O)N[C@@H](Cc1ccc(O)cc1)C(=O)N[C@@H](Cc1ccc(O)cc1)C(=O)N[C@H](C(=O)N[C@@H](CO)C(=O)N[C@@H](CC(C)C)C(=O)N[C@@H](CCCNC(=N)N)C(=O)N[C@@H](Cc1c[nH]cn1)C(=O)N[C@@H](Cc1ccc(O)cc1)C(=O)N[C@@H](Cc1ccc(O)cc1)C(=O)N[C@@H](CC(N)=O)C(=O)N[C@@H](Cc1c[nH]c2ccccc12)C(=O)N[C@@H](CC(C)C)C(=O)N[C@@H](CO)C(=O)N[C@@H](CCCNC(=N)N)C(=O)N[C@@H](CCC(N)=O)C(=O)N[C@@H](CCCNC(=N)N)C(=O)N[C@@H](Cc1ccc(O)cc1)C(N)=O)C(C)C)[C@@H](C)O) [Compound 155]

# Reference: patent publication US20260015399A1 (Boehringer Ingelheim, published 2026)
